According to paper PMC2884070:

Target: GST-CypA (cyclophilin A) (human) (UniProt P62937)
Test: radioligand binding

Chain of GST-CypA (cyclophilin A) (human) (P62937 whole entry): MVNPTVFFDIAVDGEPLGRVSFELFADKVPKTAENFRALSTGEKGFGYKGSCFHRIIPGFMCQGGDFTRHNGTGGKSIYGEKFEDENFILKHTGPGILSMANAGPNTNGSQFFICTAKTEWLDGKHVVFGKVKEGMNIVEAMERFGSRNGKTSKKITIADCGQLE

| Substance | Kd [µM] |
| --- | --- |
| full-length NS5A MD2b-1-His (genotype 2b) (natural protein) | 112 |
| NS5A Con1 D320E-His (full length) (natural protein) | 124 |
